This is an account of results in article PMC4776142, “Comparative evaluation of p5+14 with SAP and peptide p5 by dual-energy SPECT imaging of mice with AA amyloidosis” (Scientific Reports, 2016).

Data set [1] relates to amyloid-free organs of WT mice. Briefly: Dual-energy tissue biodistribution in amyloid-free WT mice. The class given is in vivo, mouse. The conditions noted are these: n = 5, SAP 24 h and p5+14 4 h post injection. The method, then: (§1) Dual-energy comparative uptake experiments were performed in individual AA mice (5 wk post amyloid induction with AEF) and wild type mice (n = 5 per group). All SPECT/CT imaging was performed using an Inveon trimodality SPECT/PET/CT platform[37] (Siemens preclinical, Knoxville, TN). Image data were acquired and reconstructed using Inveon Acquisition Workplace (IAW) ver. 2.0.
For the comparison of ^125I-SAP and ^99mTc-p5+14, mice were administered ^125I-SAP (45 μCi, 8 μg) and 20 h thereafter received ^99mTc-p5+14 (110 μCi, 5 μg). Mice were euthanised 4 h after injection of the ^99mTc-p5+14. The image data for the low and high energy radionuclides were obtained sequentially by acquiring 60, 16-second projections in a total of 1.5 revolutions. […]
For comparison of the p5+14 and p5 peptides, mice were injected IV in the lateral tail vein with a mixture of ^125I-p5+14 (150 μCi, ~3 μg) and ^99mTc-p5 (300 μCi, ~8 μg) and the mice euthanised by an overdose of isoflurane anaesthetic 1 h post injection. […] The radioactivity in the low and high energy windows (^125I and ^99mTc, respectively) was measured using an automated Wizard 3 gamma counter (1480 Wallac Gamma Counter, Perkin Elmer) with a crossover correction from the high to low energy channel of 4.6%, applied manually. Biodistribution data were expressed as percent injected dose per gram (%ID/g) of tissue.

Data set [2] addresses T1, AA amyloid in H2/IL-6 mice (Mus musculus, UniProt P05367).
T1 construct: Systemic distribution of AA amyloid in H2/IL-6 mice; from tissue; host or cells: organs of living H2/IL-6 Balb/c mice after induction with amyloid enhancing factor
T1 sequence (P05367 20-94 limits assumed): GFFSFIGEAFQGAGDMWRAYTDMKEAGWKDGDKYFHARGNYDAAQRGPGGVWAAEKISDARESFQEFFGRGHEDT
Briefly: Dual-energy tissue biodistribution of 125I-SAP and 99mTc-p5+14 in AA mice. In kind it is in vivo. As for the experimental part: Transgenic H2-L^d-huIL-6 Balb/c mice (H2/IL-6) constitutively express the human IL-6 transgene leading to chronic, severe inflammation and the overproduction of acute phase reactants, such as serum amyloid protein A, the precursor protein of systemic, inflammation-associated (AA) amyloidosis. Amyloid deposition was induced in 8–wk old female mice by IV injection of 100 μg of amyloid enhancing factor (AEF – an insoluble preparation of amyloid fibrils isolated from the spleen of mice with AA amyloidosis) suspended in sterile phosphate buffered saline (PBS)[34]. All animal procedures were performed in accordance with protocols approved by the University of Tennessee Animal Care and Use Committee. The University of Tennessee is an Association for Assessment and Accreditation of Laboratory Animal Care International (AAALAC-I) accredited institution.
as §1
For the comparison of ^125I-SAP and ^99mTc-p5+14, mice were administered ^125I-SAP (45 μCi, 8 μg) and 20 h thereafter received ^99mTc-p5+14 (110 μCi, 5 μg). Mice were euthanised 4 h after injection of the ^99mTc-p5+14. The image data for the low and high energy radionuclides were obtained sequentially by acquiring 60, 16-second projections in a total of 1.5 revolutions. A 1 mm-diameter aperture, five-pinhole (mouse whole body) collimator was used at 30 mm from the centre of the field of view. The image data in the appropriate energy window were reconstructed using a Maximum A Priori algorithm (MAP - 16 iterations, 6 subsets, β = 1) onto a matrix with x and y dimensions of 88 and z dimension of 312 and 0.5-mm isotropic voxels. Post hoc attenuation correction was then applied to reconstructed data using CT image data. Scatter correction was performed using a SPECT triple energy window (TEW) method.
For comparison of the p5+14 and p5 peptides, mice were injected IV in the lateral tail vein with a mixture of ^125I-p5+14 (150 μCi, ~3 μg) and ^99mTc-p5 (300 μCi, ~8 μg) and the mice euthanised by an overdose of isoflurane anaesthetic 1 h post injection. Tissues were harvested at necropsy for biodistribution measurements. Organs were also harvested from mice injected with ^125I-SAP and ^99mTc-p5+14 after SPECT/CT imaging. A small volume of tissue from each mouse was placed into a tared plastic vial and weighed. The radioactivity in the low and high energy windows (^125I and ^99mTc, respectively) was measured using an automated Wizard 3 gamma counter (1480 Wallac Gamma Counter, Perkin Elmer) with a crossover correction from the high to low energy channel of 4.6%, applied manually. Biodistribution data were expressed as percent injected dose per gram (%ID/g) of tissue.
Skewness and kurtosis statistics were used to assess the statistical assumption of normality for between-subjects comparisons and correlations. Any skewness or kurtosis statistic above an absolute value of 2.0 assumed a non-normal distribution. The assumption of homogeneity of variance was tested with Levene’s Test of Equality of Variances. Independent samples t-tests were used to compare p5+14 and SAP retention in amyloid laden organs (liver, spleen, pancreas, intestines and heart). Means and standard deviations were reported for the analyses. If a statistical assumption was violated, a non-parametric Mann-Whitney U test was used. Medians and interquartile ranges (IQR) were reported for non-parametric statistics. Pearson correlations were run to compare tissue biodistribution data (%ID/g) in all organs. […]

Where [3] appears, read: AA mice 5 wk post-AEF, n = 5, 125I-SAP 45 μCi, 8 μg, 24 h post injection, crossover-corrected.

As for “125I-SAP: purified human SAP radioiodinated with 125I”, in data set [1], the “Retention in amyloid-free organs” value is on record as “no retention”. In data set [2] (setting [3]), the “Tissue biodistribution, heart, Mean ± SD” value is on record as 0.7 ± 0.1 %ID/g; the “Tissue biodistribution, intestine, Mean ± SD” value turned out to be 0.8 ± 1.1 %ID/g; the “Tissue biodistribution, liver, Mean ± SD” value was found to be 14.1 ± 3.5 %ID/g; the “Tissue biodistribution, pancreas, Median (Interquartile range)” value is 0.7 (0.5)[3] %ID/g. The “Tissue biodistribution, spleen, Mean ± SD” value in data set [2] (setting [3]) is 23.8 ± 3.5 %ID/g. Moreover, in data set [2] (AA mice, in each mouse studied, p < 0.001), the “Uptake in the spleen as compared to 99mTc-p5+14” value is reported as ~ 4 fold. The “Uptake by pancreatic AA amyloid” value in data set [2] (AA mice, 125I-SAP, 24 h post injection) is under 1 %ID/g.
